Publication doi:10.1101/2025.08.12.669882

Target: TG (triacylglycerol)
Assay: TG binding assay with purified proteins, TLC of radiolabeled TG
Conditions: 2.5 mol % TG; parent: est. 1.5; read off a plot

Substance: LDAC (m1 + m2) F57A; S61A; L105A; S109A
- response (relative to MBOAT7): 1.2
